Source: patent US20240150451A1 (Janssen / Centocor, published 2024)

Legend:
[1] = target: T1, recombinant full-length tau 2N4R (control tau) (human, UniProt P10636 2-758); experiment: direct ELISA, 10 ng/well coated control tau, hybridoma screening
T1 construct: also called recombinant WT (2N4R) tau; Rec; Tau
Protocol: Obtained hybridomas were seeded in 96-well plates and screened after 10 days in a direct ELISA on 25 ng/well coated PHF-tau as described below. Positive cells were tested for cross-reactivity on 10 ng/well coated with control tau (SEQ ID NO: 51) expressed in E. Coli BL21 cells and purified by heat treatment and ammonium sulphate precipitation. […] PT/66, PT/69 and hTau/60 were prioritized for V-region cloning and humanization.

[2] = target: T2, Tau peptide Start 415 Stop 434; experiment: Pepscan ELISA on an array of linear 20-mer Tau 441 peptides; design: peptide ELISA signal (no name or unit printed): unit not given here
T2 peptide: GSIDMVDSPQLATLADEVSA
From the text: (§1) An amino functionalized polypropylene support was obtained by grafting with a proprietary hydrophilic polymer formulation, followed by reaction with t-butyloxycarbonyl-hexamethylenediamine (BocHMDA) using dicyclohexylcarbodiimide (DCC) with N-hydroxybenzotriazole (HOBt), and subsequent cleavage of the Boc-groups using trifluoroacetic acid (TFA). Standard Fmoc-peptide synthesis was used to synthesize peptides on the amino-functionalized solid support by custom modified JANUS liquid handling stations (Perkin Elmer). Synthesis of structural mimics was done using Pepscan's proprietary Chemically Linked Peptides on Scaffolds (CLIPS) technology. CLIPS technology allows to structure peptides into single loops, double loops, triple loops, sheet-like folds, helix-like folds, and combinations thereof. CLIPS templates are coupled to cysteine residues. The side-chains of multiple cysteines in the peptides are coupled to one or two CLIPS templates. For example, a 0.5 mM solution of the P2 CLIPS (2,6-bis(bromomethyl)pyridine) is dissolved in ammonium bicarbonate (20 mM, pH 7.8)/acetonitrile (1:3 (v/v)). This solution is added onto the peptide arrays. The CLIPS template will bind to side-chains of two cysteines as present in the solid-phase bound peptides of the peptide-arrays (455 wells plate with 3 μl wells). The peptide arrays are gently shaken in the solution for 30 to 60 minutes while completely covered in solution. Finally, the peptide arrays are washed extensively with excess of H₂O and sonicated in disrupt-buffer containing 1% SDS/0.1% beta-mercaptoethanol in PBS (pH 7.2) at 70° C. for 30 minutes, followed by sonication in H₂O for another 45 minutes. The T3 CLIPS carrying peptides were made in a similar way but now with three cysteines.
(§2) The binding of antibodies (recombinantly expressed as IgG2a) to each of the synthesized peptides was tested in a pepscan-based ELISA. The peptide arrays were incubated with primary antibody solution (overnight at 4° C.). After washing, the peptide arrays were incubated with a 1/1000 dilution of an appropriate antibody peroxidase conjugate (SBA; Table 4) for one hour at 25° C. After washing, the peroxidase substrate 2,2′-azino-di-3-ethylbenzthiazoline sulfonate (ABTS) and 20 μl/ml of 3 percent H₂O₂ were added. After one hour, the color development was measured.

[3] = target: T3, Tau peptide Start 417 Stop 436; experiment: as above; design: peptide ELISA signal (no name or unit printed): unit not given here
T3 peptide: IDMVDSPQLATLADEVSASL
From the text: as §1, §2

[4] = target: T4, Tau peptide Start 419 Stop 438; experiment: as above; design: peptide ELISA signal (no name or unit printed): unit not given here
T4 peptide: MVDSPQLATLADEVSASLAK
From the text: as §1, §2

[5] = target: T5, Tau peptide Start 421 Stop 440; experiment: as above; design: peptide ELISA signal (no name or unit printed): unit not given here
T5 peptide: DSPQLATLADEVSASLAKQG
From the text: as §1, §2

[6] = target: T6, Tau peptide Start 422 Stop 441; experiment: as above; design: peptide ELISA signal (no name or unit printed): unit not given here
T6 peptide: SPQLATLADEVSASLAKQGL
From the text: as §1, §2

[7] = target: Tau peptide Start 1 Stop 20 (Synthetic linear peptide immobilised on a Pepscan array; the attachment to the array cannot be carried by the letters.); experiment: as above; design: peptide ELISA signal (no name or unit printed): unit not given here
From the text: as §1, §2

[8] = target: T7, Tau peptide Start 3 Stop 22 (Synthetic linear peptide immobilised on a Pepscan array; the attachment to the array cannot be carried by the letters.); experiment: as above; design: peptide ELISA signal (no name or unit printed): unit not given here
T7 peptide: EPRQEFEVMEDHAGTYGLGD
From the text: as §1, §2

[9] = target: T8, Tau peptide Start 411 Stop 430; experiment: as above; design: peptide ELISA signal (no name or unit printed): unit not given here
T8 peptide: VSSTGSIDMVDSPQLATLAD
From the text: as §1, §2

[10] = target: T9, Tau peptide Start 413 Stop 432; experiment: as above; design: peptide ELISA signal (no name or unit printed): unit not given here
T9 peptide: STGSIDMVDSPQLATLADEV
From the text: as §1, §2

Chain of Tau peptide Start 1 Stop 20 (Synthetic linear peptide immobilised on a Pepscan array; the attachment to the array cannot be carried by the letters.) (peptide, as listed by the source limits assumed): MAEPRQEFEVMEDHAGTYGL

B1: PT53 monoclonal antibody (recombinant, mouse IgG2a/kappa) (antibody, V domains shown)
VH: EVKLMESGGGLVQPGASLRLSCAASGFTFTDYYMSWVRQPPGKAPEWLALIRNKANGYTTKYAASVKGRFTISRDNSQNILYLQMNTLRAEDSATYYCVKAVWFAYWGQGTLVTVSA
VL: DIVITQDELSNPVTSGESVSISCRSSKSLLYKDGKTYLNWFLQRPGQSPQLLIYLMSTRASGVSDRFSGSGSGTDFTLEISRVKAEDVGVYYCLQLVEYPYTFGGGTKLEIKR
notes: also called PT50/PT53
binding result [1]: binds
binding result [2]: no binding
peptide ELISA signal (no name or unit printed) [2]: 40
peptide ELISA signal (no name or unit printed) [3]: 637
peptide ELISA signal (no name or unit printed) [4]: 2090
peptide ELISA signal (no name or unit printed) [5]: 2880
peptide ELISA signal (no name or unit printed) [6]: 2930
peptide ELISA signal (no name or unit printed) [7]: 38
peptide ELISA signal (no name or unit printed) [8]: 44
peptide ELISA signal (no name or unit printed) [9]: 29
binding result [10]: no binding
peptide ELISA signal (no name or unit printed) [10]: 38

B2: PT81 monoclonal antibody (recombinant, mouse IgG2a/kappa) (antibody, V domains shown)
VH: QVQLQQPGAELVRPGASVILSCKASGYTFTNSWIHWVKQRPGRVLEWIGRIDPNSGGTRYNENFKSKATLTVDKPSSTAYMQLSSLTSEDSAVYFCSRGVLHDYWGQGTTLTVSS
VL: DIVITQDELSNPVTSGESVSISCRSSKSLLYKDGKTYLNWFLQRPGQSPQLLIYLMSTRASGVSDRFSVSGSGTDFTLEISRVQAEDVGVYYCQQLVEYPYTFGGGTKLEIKR
binding result [1]: binds
binding result [2]: no binding
peptide ELISA signal (no name or unit printed) [2]: 78
peptide ELISA signal (no name or unit printed) [3]: 2800
peptide ELISA signal (no name or unit printed) [4]: 2900
peptide ELISA signal (no name or unit printed) [5]: 2900
peptide ELISA signal (no name or unit printed) [6]: 2920
peptide ELISA signal (no name or unit printed) [7]: 43
peptide ELISA signal (no name or unit printed) [8]: 45
peptide ELISA signal (no name or unit printed) [9]: 31
binding result [10]: no binding
peptide ELISA signal (no name or unit printed) [10]: 30
